From the Immune Epitope Database (IEDB)

What was measured:
[1] = target: HLA-A*01:01; assay: IEDB peptide-MHC binding, purified MHC/direct/fluorescence; filed as Kd, often an IC50 or EC50 that approximates it; ≥ and ≤ were set here for values at or beyond the usual limits of such assays
[2] = target: HLA-A*02:01; assay: as above
[3] = target: HLA-A*03:01; assay: as above
[4] = target: HLA-A*31:01; assay: as above
[5] = target: HLA-A*68:02; assay: as above
[6] = target: HLA-A*69:01; assay: as above
[7] = target: HLA-B*07:02; assay: as above
[8] = target: HLA-B*08:01; assay: as above
[9] = target: HLA-B*15:01; assay: as above
[10] = target: HLA-B*15:17; assay: as above
[11] = target: HLA-B*18:01; assay: as above; conditions: source organism: Campylobacter jejuni RM1221
[12] = target: HLA-B*27:05; assay: as above
[13] = target: HLA-B*48:01; assay: as above; conditions: source organism: Campylobacter jejuni RM1221
[14] = target: HLA-B*57:01; assay: as above
[15] = target: HLA-B*58:01; assay: as above
[16] = target: HLA-B*73:01; assay: as above; conditions: source organism: Campylobacter jejuni RM1221
[17] = target: HLA-A*11:01; assay: IEDB peptide-MHC binding, purified MHC/competitive/fluorescence; filed as Kd, often an IC50 or EC50 that approximates it; ≥ and ≤ were set here for values at or beyond the usual limits of such assays; conditions: source organism: Campylobacter jejuni subsp. jejuni NCTC 11168 = ATCC 700819
[18] = target: HLA-B*15:02; assay: IEDB peptide-MHC binding, purified MHC/direct/fluorescence; filed as Kd, often an IC50 or EC50 that approximates it; ≥ and ≤ were set here for values at or beyond the usual limits of such assays
[19] = target: HLA-B*46:01; assay: as above
[20] = target: HLA-A*11:01; assay: as above
[21] = target: HLA-A*23:01; assay: as above; conditions: source organism: Mammarenavirus lassaense
[22] = target: HLA-A*24:02; assay: as above; conditions: source organism: Mammarenavirus lassaense
[23] = target: HLA-A*24:03; assay: as above; conditions: source organism: Mammarenavirus lassaense
[24] = target: HLA-A*26:01; assay: as above
[25] = target: HLA-A*26:02; assay: as above; conditions: source organism: Mammarenavirus lassaense
[26] = target: HLA-B*08:03; assay: as above; conditions: source organism: Mammarenavirus lassaense
[27] = target: HLA-A*02:06; assay: IEDB peptide-MHC binding, purified MHC/competitive/fluorescence; filed as Kd, often an IC50 or EC50 that approximates it; ≥ and ≤ were set here for values at or beyond the usual limits of such assays; conditions: source organism: Mammarenavirus lassaense
[28] = target: HLA-B*18:01; assay: as above; conditions: source organism: Mammarenavirus lassaense
[29] = target: HLA-A*01:01; assay: IEDB peptide-MHC binding, purified MHC/competitive/fluorescence; ≥ and ≤ were set here for values at or beyond the usual limits of such assays
[30] = target: HLA-A*02:01; assay: as above
[31] = target: HLA-B*35:01; assay: IEDB peptide-MHC binding, purified MHC/direct/fluorescence; filed as Kd, often an IC50 or EC50 that approximates it; ≥ and ≤ were set here for values at or beyond the usual limits of such assays; conditions: source organism: Burkholderia mallei ATCC 23344
[32] = target: HLA-A*02:01; assay: IEDB peptide-MHC binding, cellular MHC/competitive/fluorescence; ≥ and ≤ were set here for values at or beyond the usual limits of such assays
[33] = target: HLA-A*03:01; assay: IEDB peptide-MHC binding, purified MHC/competitive/fluorescence; ≥ and ≤ were set here for values at or beyond the usual limits of such assays; conditions: source organism: Zaire ebolavirus
[34] = target: HLA-A*11:01; assay: as above; conditions: source organism: Zaire ebolavirus
[35] = target: HLA-A*24:02; assay: as above; conditions: source organism: Zaire ebolavirus
[36] = target: HLA-B*15:01; assay: as above; conditions: source organism: Zaire ebolavirus
[37] = target: HLA-B*40:01; assay: IEDB peptide-MHC binding, purified MHC/direct/fluorescence; filed as Kd, often an IC50 or EC50 that approximates it; ≥ and ≤ were set here for values at or beyond the usual limits of such assays; conditions: source organism: Vibrio parahaemolyticus
[38] = target: HLA-B*44:02; assay: as above; conditions: source organism: Vibrio parahaemolyticus
[39] = target: HLA-A*80:01; assay: as above; conditions: source organism: Francisella tularensis subsp. holarctica LVS
[40] = target: HLA-C*08:02; assay: as above; conditions: source organism: Francisella tularensis subsp. tularensis FSC198
[41] = target: HLA-B*15:42; assay: IEDB peptide-MHC binding, purified MHC/competitive/fluorescence; filed as Kd, often an IC50 or EC50 that approximates it; ≥ and ≤ were set here for values at or beyond the usual limits of such assays; conditions: source organism: Francisella tularensis subsp. tularensis FSC198
[42] = target: HLA-B*45:06; assay: as above; conditions: source organism: Francisella tularensis subsp. tularensis FSC198
[43] = target: HLA-B*83:01; assay: as above; conditions: source organism: Francisella tularensis subsp. tularensis FSC198
[44] = target: HLA-C*04:01; assay: as above; conditions: source organism: Francisella tularensis subsp. tularensis FSC198
[45] = target: HLA-C*14:02; assay: as above; conditions: source organism: Francisella tularensis subsp. tularensis FSC198
[46] = source organism: Campylobacter jejuni RM1221
[47] = source organism: Orthohantavirus hantanense
[48] = source organism: Mammarenavirus lassaense
[49] = source organism: Burkholderia mallei ATCC 23344
[50] = source organism: Burkholderia mallei
[51] = source organism: Zaire ebolavirus
[52] = source organism: Vibrio parahaemolyticus

AKYEICLEK
Kd [1, 46]: ≥ 20 µM
Kd [2, 46]: ≥ 20 µM
Kd [3, 46]: ≥ 20 µM
Kd [4, 46]: ≥ 20 µM
Kd [5, 46]: ≥ 20 µM
Kd [6, 46]: ≥ 20 µM
Kd [7, 46]: ≥ 20 µM
Kd ([8]; source organism: Campylobacter jejuni subsp. jejuni 81-176): ≥ 20 µM
Kd [9, 46]: ≥ 20 µM
Kd [10, 46]: ≥ 20 µM
Kd [11]: ≥ 20 µM
Kd [12, 46]: ≥ 20 µM
Kd [13]: ≥ 20 µM
Kd [14, 46]: ≥ 20 µM
Kd [15, 46]: ≥ 20 µM
Kd [16]: ≥ 20 µM
Kd [17]: ≥ 20 µM

FQHERLGQF
Kd [9, 47]: 0.0204 µM
Kd ([18]; source organism: Hantaan virus Q32): 0.029 µM
Kd [19, 47]: 0.783 µM

GYAWIDFDI
Kd [1, 48]: ≥ 20 µM
Kd [2, 48]: ≥ 20 µM
Kd [20, 48]: ≥ 20 µM
Kd [21]: 0.0039 µM
Kd [22]: 0.0037 µM
Kd [23]: 0.0034 µM
Kd [24, 48]: ≥ 20 µM
Kd [25]: ≥ 20 µM
Kd [4, 48]: ≥ 20 µM
Kd [5, 48]: ≥ 20 µM
Kd [7, 48]: ≥ 20 µM
Kd [8, 48]: ≥ 20 µM
Kd [26]: ≥ 20 µM
Kd [9, 48]: ≥ 20 µM
Kd [10, 48]: ≥ 20 µM
Kd [14, 48]: ≥ 20 µM
Kd [15, 48]: ≥ 20 µM
Kd [27]: ≥ 20 µM
Kd [28]: 0.408 µM

KIDSMFLMT
IC50 ([29]; source organism: Variola virus): ≥ 104 µM
IC50 ([30]; source organism: Variola virus): 0.565 µM

MMYASWGVH
Kd [7, 49]: ≥ 20 µM
Kd [9, 50]: 0.0082 µM
Kd [18, 49]: 0.003 µM
Kd [31]: 2.68 µM
Kd [19, 50]: 3.76 µM

SLLDKIIGA
IC50 ([32]; source organism: Homo sapiens): 15 µM

SLPKTSGHY
IC50 [29, 51]: 37.8 µM
IC50 [30, 51]: ≥ 368 µM
IC50 [33]: ≥ 91.7 µM
IC50 [34]: ≥ 105 µM
IC50 [35]: 47.5 µM
IC50 [36]: 4.02 µM

VQGYERIMY
Kd [1, 52]: ≥ 20 µM
Kd [2, 52]: ≥ 20 µM
Kd [3, 52]: ≥ 20 µM
Kd [20, 52]: ≥ 20 µM
Kd [24, 52]: ≥ 20 µM
Kd [4, 52]: ≥ 20 µM
Kd [6, 52]: ≥ 20 µM
Kd [7, 52]: ≥ 20 µM
Kd [8, 52]: ≥ 20 µM
Kd [9, 52]: 0.271 µM
Kd [18, 52]: ≥ 20 µM
Kd [12, 52]: ≥ 20 µM
Kd [37]: ≥ 20 µM
Kd [38]: ≥ 20 µM
Kd [19, 52]: ≥ 20 µM
Kd [15, 52]: ≥ 20 µM

YMDDLYVGSD
IC50 ([32]; source organism: Human immunodeficiency virus 1): 8 µM

YTDKIAMSY
Kd ([1]; source organism: Francisella tularensis subsp. holarctica LVS): ≤ 0.001 µM
Kd [39]: 0.0005 µM
Kd [40]: 0.651 µM
Kd [41]: ≥ 5 µM
Kd [42]: ≥ 5 µM
Kd [43]: ≥ 5 µM
Kd [44]: ≥ 5 µM
Kd [45]: 0.0684 µM
